Laboratory results from patent US20210340263A1 (WISTAR INSTITUTE, published 2021).

Target: T1, murine FSHR (murine, UniProt P35378 18-692)
T1 construct: whole, on cells; also called mouse FSHR
T1 sequence (looked up): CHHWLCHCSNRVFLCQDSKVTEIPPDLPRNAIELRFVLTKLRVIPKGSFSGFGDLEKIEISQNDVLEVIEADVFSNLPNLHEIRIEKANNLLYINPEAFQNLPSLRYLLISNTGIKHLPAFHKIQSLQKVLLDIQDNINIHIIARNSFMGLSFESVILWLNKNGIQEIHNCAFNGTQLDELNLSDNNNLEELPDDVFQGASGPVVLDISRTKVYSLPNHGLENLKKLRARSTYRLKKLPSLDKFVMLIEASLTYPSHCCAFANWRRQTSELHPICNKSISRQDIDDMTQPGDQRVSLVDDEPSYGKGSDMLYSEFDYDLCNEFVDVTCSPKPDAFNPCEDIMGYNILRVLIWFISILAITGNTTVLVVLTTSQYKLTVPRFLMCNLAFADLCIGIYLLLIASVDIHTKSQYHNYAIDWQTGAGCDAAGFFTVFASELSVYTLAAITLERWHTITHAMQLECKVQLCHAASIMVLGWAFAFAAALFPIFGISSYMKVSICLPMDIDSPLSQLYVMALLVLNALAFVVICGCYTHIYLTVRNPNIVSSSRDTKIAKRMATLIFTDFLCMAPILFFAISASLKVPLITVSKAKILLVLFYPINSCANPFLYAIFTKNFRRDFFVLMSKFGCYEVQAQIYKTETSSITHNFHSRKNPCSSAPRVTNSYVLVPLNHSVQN
Assay: immunofluorescence, 293T cells transiently transduced with murine FSHR
From the text: The use of 9H11 for staining FSHR in immunocytochemistry through immunofluorescence was validated.

binding result: binds
B1: 9H11 monoclonal antibody (murine, original) (antibody, mouse IgG2a, kappa, V domains shown)
VH: QVNLKESGPGILQPSQTLNLTCSFSGFSLSTSGMGVGWIRQPSGKGLDWLAHIWWDDDKRYNPALKSRLTISKDASSNQVFLKIASVVTADTATYYCVQINYGNYRFDNWGHGTTLTVSS
VL: not shown
notes: Mouse hybridoma antibody; also called murine monoclonal antibody 9H11; 9H11 antibody
